Data from US20060024314A1, “Antibodies and cyclic peptides which bind CEA (carcinoembryonic antigens) and their use as cancer therapeutics” (priority 1998, published 2006).
Bridge positions count the residues as written; N and C are the ends.

Legend:
[1] = biological target: CEA double mutant Q44R+I46V (human) (UniProt P06731); test: cell-based or functional assay
CEA mutant D82N (human) = CEA mutant D82N (human) (UniProt P06731); test: cell-based or functional assay
CEA mutant Q80R (human) = CEA mutant Q80R (human) (UniProt P06731); test: cell-based or functional assay
[2] = system: CEA-mediated intercellular adhesion; settings: from references (29) and (16); cited from earlier work
[3] = biological target: T1, human carcinoembryonic antigen (CEA), wild type (human, UniProt P06731 35-685, GPI membrane anchor); test: cell-based or functional assay
T1 sequence (looked up): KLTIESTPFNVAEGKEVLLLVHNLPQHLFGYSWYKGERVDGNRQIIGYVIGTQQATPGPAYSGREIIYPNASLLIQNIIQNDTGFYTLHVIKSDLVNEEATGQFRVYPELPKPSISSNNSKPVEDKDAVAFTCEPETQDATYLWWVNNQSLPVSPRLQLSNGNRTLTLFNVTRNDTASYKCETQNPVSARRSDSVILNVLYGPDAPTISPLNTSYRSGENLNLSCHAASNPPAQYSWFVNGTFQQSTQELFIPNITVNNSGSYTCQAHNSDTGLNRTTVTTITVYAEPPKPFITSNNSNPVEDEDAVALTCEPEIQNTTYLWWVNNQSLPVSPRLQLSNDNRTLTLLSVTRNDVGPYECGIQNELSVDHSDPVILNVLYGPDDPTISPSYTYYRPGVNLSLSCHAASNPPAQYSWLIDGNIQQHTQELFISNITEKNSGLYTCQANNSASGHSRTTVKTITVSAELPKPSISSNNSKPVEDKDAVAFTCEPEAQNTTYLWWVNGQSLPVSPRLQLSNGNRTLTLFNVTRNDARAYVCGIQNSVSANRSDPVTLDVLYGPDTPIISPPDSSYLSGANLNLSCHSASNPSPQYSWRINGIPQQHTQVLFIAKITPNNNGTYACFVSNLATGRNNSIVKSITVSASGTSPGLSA

For “CEA double mutant Q44R+I46V (from UniProt P06731 35-702)”, the degree of differentiation of L6 transfectants [1] was 100%.

“CEA mutant D82N (from UniProt P06731 35-702)” gave a degree of differentiation of L6 transfectants (CEA mutant D82N (human)) of 100%.

Work on “CEA mutant Q80R (from UniProt P06731 35-702)” yielded a degree of differentiation of L6 transfectants (CEA mutant Q80R (human)) of 81%.

For “H-CQNDTGC-OH (disulfide 1-7; SMILES C[C@@H](O)[C@@H]1NC(=O)[C@H](CC(=O)O)NC(=O)[C@H](CC(N)=O)NC(=O)[C@H](CCC(N)=O)NC(=O)[C@@H](N)CSSC[C@@H](C(=O)O)NC(=O)CNC1=O) [cyclized peptide QNDTG, cyclized peptide representing subdomain 3 of the CEA N domain]”, the “inhibition of CEA-mediated intercellular adhesion” value [2] is listed as “effective in inhibiting CEA-mediated intercellular adhesion”.

B1: cyclized peptide H-CGNRQIIC-OH (subdomain 2) (peptide)
peptide: H-CGNRQIIC-OH
modifications: disulfide 1-8
SMILES: CC[C@H](C)[C@@H]1NC(=O)[C@H](CCC(N)=O)NC(=O)[C@H](CCCNC(=N)N)NC(=O)[C@H](CC(N)=O)NC(=O)CNC(=O)[C@@H](N)CSSC[C@@H](C(=O)O)NC(=O)[C@H]([C@@H](C)CC)NC1=O
For B1, the “% fusion of L6(CEA) cells (release of the myogenic differentiation block), peptide at 100 µM” value [3] was 28%.

B2: cyclized peptide H-CQNDTGC-OH (subdomain 3) (peptide)
peptide: H-CQNDTGC-OH
modifications: disulfide 1-7
SMILES: C[C@@H](O)[C@@H]1NC(=O)[C@H](CC(=O)O)NC(=O)[C@H](CC(N)=O)NC(=O)[C@H](CCC(N)=O)NC(=O)[C@@H](N)CSSC[C@@H](C(=O)O)NC(=O)CNC1=O
With B2 the “% fusion of L6(CEA) cells (release of the myogenic differentiation block), peptide at 100 µM” value [3] was 36%.

B3: cyclized peptide H-CGYSWYKC-OH (subdomain 1) (peptide)
peptide: H-CGYSWYKC-OH
modifications: disulfide 1-8
SMILES: NCCCC[C@@H]1NC(=O)[C@H](Cc2ccc(O)cc2)NC(=O)[C@H](Cc2c[nH]c3ccccc23)NC(=O)[C@H](CO)NC(=O)[C@H](Cc2ccc(O)cc2)NC(=O)CNC(=O)[C@@H](N)CSSC[C@@H](C(=O)O)NC1=O
For B3, the “% fusion of L6(CEA) cells (release of the myogenic differentiation block), peptide at 100 µM” value [3] was 18%.
